Here are results for one molecule from PMC7929502.

The assay addresses T1, human Derlin-1 (hDERL1), full length, purified from Expi293F cells (human), Q9BUN8.
T1 chain: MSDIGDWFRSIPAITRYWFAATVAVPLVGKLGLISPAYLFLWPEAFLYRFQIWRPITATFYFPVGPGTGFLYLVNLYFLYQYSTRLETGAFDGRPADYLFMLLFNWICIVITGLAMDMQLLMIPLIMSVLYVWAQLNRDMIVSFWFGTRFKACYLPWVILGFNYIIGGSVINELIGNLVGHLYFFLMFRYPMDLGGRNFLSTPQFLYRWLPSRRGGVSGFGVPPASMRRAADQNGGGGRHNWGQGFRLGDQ
Description: cryo-EM structure. The conditions noted are these: remark: other sources report otherwise.

B1: human Derlin-1 (hDERL1), full length, purified from Expi293F cells, Q9BUN8-1 1-251 (natural protein)
chain: MSDIGDWFRSIPAITRYWFAATVAVPLVGKLGLISPAYLFLWPEAFLYRFQIWRPITATFYFPVGPGTGFLYLVNLYFLYQYSTRLETGAFDGRPADYLFMLLFNWICIVITGLAMDMQLLMIPLIMSVLYVWAQLNRDMIVSFWFGTRFKACYLPWVILGFNYIIGGSVINELIGNLVGHLYFFLMFRYPMDLGGRNFLSTPQFLYRWLPSRRGGVSGFGVPPASMRRAADQNGGGGRHNWGQGFRLGDQ
In the case of B1, the stoichiometry N is 4.
